Laboratory results from the RNAGym collection of RNA variant scans (doi:10.1093/molbev/msab373).

B1: Azoarcus group I ribozyme (parent)
chain: GUGCCUUGCGCCGGGAAACCACGCAAGGGAUGGUGUCAAAUUCGGCGAAACCUAAGCGCCCGCCCGGGCGUAUGGCAACGCCGAGCCAAGCUUCGGCGCCUGCGCCGAUGAAGGUGUAGAGACUAGACGGCACCCACCUAAGGCAAACGCUAUGGUGAAGGCAUAGUCCAGGGAGUGGCGAAAGUCACACAAACCGG

Variants of: B1
Assay: reverse-splicing fitness (ratio to wild type); higher = more active; in vitro selection; Mg2+ level not given
Outline: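 An in vitro group I ribozyme library with randomized positions was T7-transcribed and gel-purified. In triplicate, 10 pmol RNA in EPPS pH 7.5 was reacted with 50 pmoles of a 30-nt RNA substrate for 1 h at 37 °C across several added MgCl2 levels (1–48 mM), then stopped with EDTA. Products were reverse transcribed from a substrate-complementary primer, PCR-amplified and sequenced (HiSeq 4000). Fitness is a variant's read proportion after selection over that before, normalised to wild type.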

Variant | reverse-splicing fitness
C82A A120C A145C C150A C169G U176C | 0.0244
C82A A120C A145C C150A C169G U176G | 0.00625
C82A A120C | 0.144
C82A A111U A145G C150G U176C | 0.0188
C82A A111U A145G C150G U176G | 0.00688
C82A A111U A145G C150G U176A | 0.00963
C82A A111U A145U C150A U176G | 0.00989
C82A A111U A145U C150A U176A | 0.018
C82A A111U A145U C150A U176C | 0.0251
C82A A111U C169U U176G | 0.00671
C82A A111U C169U U176A | 0.0152
C82A A111U C169U U176C | 0.0132
C82A A111U A145U C169U | 0.0125
C82A A111U A145U C169A | 0.00911
C82A A111U A145U C169G | 0.00938
C82A A111U C150U | 0.135
C82A A111U C150G | 0.0198
C82A A111U C150A | 0.0266
C82A A111U A145U C150U C169A U176G | 0.00727
C82A A111U A145U C150U C169A U176A | 0.0148
C82A A111U A145U C150U C169A U176C | 0.0108

Variant | reverse-splicing fitness
C82A A111U C169G | 0.00884
C82A A111U C169A | 0.00917
C82A A111U C169U | 0.014
C82A A120C A145C C150G U176G | 0.00331
C82A A120C A145C C150G U176A | 0.0063
C82A A120C A145C C150G U176C | 0.0119
C82A A111U C150U C169U | 0.0124
C82A A111U C150U C169A | 0.0102
C82A A111U C150U C169G | 0.0102
C82A A120C A145C C150A | 0.0144
C82A A120C A145C C150U | 0.035
C82A A120C A145C C150G | 0.0192
C82A A120C A145G C150U | 0.107
C82A A120C A145G C150A | 0.0245
C82A A120C A145G C150G | 0.0213
C82A A120C A145G C150U U176G | 0.0102
C82A A120C A145G C150U U176A | 0.0309
C82A A120C A145G C150U U176C | 0.0551
C82A A120C A145G C150G C169U U176A | 0.0135
C82A A120C A145G C150G C169U U176C | 0.015
C82A A120C A145G C150G C169U U176G | 0.00779

Variant | reverse-splicing fitness
C82A A120C A145U C150A C169A U176A | 0.0198
C82A A120C A145U C150A C169A U176C | 0.0156
C82A A120C A145U C150A C169A U176G | 0.00601
C82A A120C A145U C150A C169G U176A | 0.0165
C82A A120C A145U C150A C169G U176C | 0.0221
C82A A120C A145U C150A C169G U176G | 0.00546
C82A A111U C169G U176A | 0.0162
C82A A111U C169G U176G | 0.00658
C82A A111U C169G U176C | 0.0258
C82A A120C A145G C150U C169G U176G | 0.00573
C82A A120C A145G C150U C169G U176A | 0.0144
C82A A120C A145G C150U C169G U176C | 0.0202
C82A A111U C150G C169G U176A | 0.00782
C82A A111U C150G C169G U176C | 0.00482
C82A A111U C150G C169G U176G | 0.00641
C82A A120C A145U C150U C169A U176C | 0.0134
C82A A120C A145U C150U C169A U176A | 0.0178
C82A A120C A145U C150U C169A U176G | 0.00539
C82A A111U A145U C150G C169A U176G | 0.00651
C82A A111U A145U C150G C169A U176A | 0.0106
C82A A111U A145U C150G C169A U176C | 0.0109

Variant | reverse-splicing fitness
C82A A111U A145U C150A C169U U176A | 0.0147
C82A A111U A145U C150A C169U U176C | 0.0127
C82A A111U A145U C150A C169U U176G | 0.00771
C82A A120C A145G C150U C169A U176G | 0.00774
C82A A120C A145G C150U C169A U176C | 0.0184
C82A A120C A145G C150U C169A U176A | 0.0169
C82A A120C A145U C150A C169U U176C | 0.0126
C82A A120C A145U C150A C169U U176G | 0.00487
C82A A120C A145U C150A C169U U176A | 0.0151
C82A A111U A145U C150U U176G | 0.0184
C82A A111U A145U C150U U176A | 0.0636
C82A A111U A145U C150U U176C | 0.0933
C82A A111U A145G C169U | 0.0129
C82A A111U A145G C169A | 0.0104
C82A A111U A145G C169G | 0.0102
C82A A111U A145U C150G C169G U176G | 0.00651
C82A A111U A145U C150G C169G U176C | 0.00625
C82A A111U A145U C150G C169G U176A | 0.00742
C82A A120C A145C U176G | 0.00935
C82A A120C A145C U176C | 0.0514
C82A A120C A145C U176A | 0.0359
